Test results from PMC4530576.
Where two headings read alike, the source gives them in different places.

T1: Spen RRM domains (Spen RRMs) (UniProt Q96T58 335-620)
T1 sequence: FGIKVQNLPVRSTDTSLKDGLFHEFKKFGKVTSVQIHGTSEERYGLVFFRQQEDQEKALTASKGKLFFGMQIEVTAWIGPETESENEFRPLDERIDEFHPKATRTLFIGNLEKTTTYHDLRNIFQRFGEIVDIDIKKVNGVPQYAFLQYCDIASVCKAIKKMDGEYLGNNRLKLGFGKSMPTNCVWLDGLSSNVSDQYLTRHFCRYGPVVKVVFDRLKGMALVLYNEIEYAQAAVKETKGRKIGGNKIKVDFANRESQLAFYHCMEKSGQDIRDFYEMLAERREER

B1: H12-H13 SRA, synthetic (structured_RNA)
RNA: GCAGGUAUGUGAUGACAUCAGCCGACGCCUGGCACUGCUGCAGGAACAGUGGGCUGGAGGAAAGUUGUCAAUACCUGU
B2: XCR-XC dimer (Xist A-repeat dimer), synthetic (structured_RNA)
RNA: UUGCCCAUCGGGGCCUCGGAUACCUGCUUUAAAUUGCCCAUCGGGGCCUCGGAUACCUGCUUUAC

Assays:
[1] = molecular target: T1, Spen RRM domains (Spen RRMs); experiment: EMSA
[2] = molecular target: T1, Spen RRM domains (Spen RRMs); experiment: EMSA; remark: listed apart in the source

Binder	binding result [1]	binding result [2]
B1	binds	–
B2	–	binds
